Source: paper PMC4501562, “Vpu Exploits the Cross-Talk between BST2 and the ILT7 Receptor to Suppress Anti-HIV-1 Responses by Plasmacytoid Dendritic Cells” (PLoS Pathogens, 2015)

How the values were obtained:
[1] = biological target: ILT7 on the ILT7+ NFAT-GFP reporter mouse cell line (CT550) (human) (UniProt P59901)
[2] = biological target: T1, baculovirus-expressed soluble ILT7 (residues 24 to 435) (human, UniProt P59901 24-435); test: SPR; Biacore 3000; GST-BST2 covalently immobilised on a CM5 chip by amine coupling (6550 RU); bacILT7 serially diluted and passed over at 10 ul/min; running buffer HBS-PE (10 mM HEPES pH 7.5, 150 mM NaCl, 3 mM EDTA, 0.005% Tween-20); GST-coated reference cell subtracted; 1:1 Langmuir model, local Rmax; settings: both partners purified
T1 construct: immunoglobulin-like transcript 7 (ILT7, LILRA4, CD85g), human, residues 24 to 435, from a synthetic codon-optimized gene; Cloned into the transfer vector pFL and transposed into the EMBacY bacmid; also called bacILT7; LILRA4
T1 sequence (P59901 24-435): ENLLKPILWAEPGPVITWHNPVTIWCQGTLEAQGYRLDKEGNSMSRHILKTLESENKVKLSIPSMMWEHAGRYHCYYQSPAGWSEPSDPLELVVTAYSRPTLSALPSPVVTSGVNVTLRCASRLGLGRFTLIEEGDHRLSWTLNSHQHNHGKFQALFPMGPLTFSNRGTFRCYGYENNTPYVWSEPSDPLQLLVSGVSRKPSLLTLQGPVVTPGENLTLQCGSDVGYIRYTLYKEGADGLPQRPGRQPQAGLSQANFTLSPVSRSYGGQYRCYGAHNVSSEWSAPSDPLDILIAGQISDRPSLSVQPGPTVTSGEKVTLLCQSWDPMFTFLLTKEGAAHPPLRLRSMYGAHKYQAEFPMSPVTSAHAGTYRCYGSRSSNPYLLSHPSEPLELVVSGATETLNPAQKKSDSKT

Chain of ILT7 on the ILT7+ NFAT-GFP reporter mouse cell line (CT550) (human) (P59901 24-499): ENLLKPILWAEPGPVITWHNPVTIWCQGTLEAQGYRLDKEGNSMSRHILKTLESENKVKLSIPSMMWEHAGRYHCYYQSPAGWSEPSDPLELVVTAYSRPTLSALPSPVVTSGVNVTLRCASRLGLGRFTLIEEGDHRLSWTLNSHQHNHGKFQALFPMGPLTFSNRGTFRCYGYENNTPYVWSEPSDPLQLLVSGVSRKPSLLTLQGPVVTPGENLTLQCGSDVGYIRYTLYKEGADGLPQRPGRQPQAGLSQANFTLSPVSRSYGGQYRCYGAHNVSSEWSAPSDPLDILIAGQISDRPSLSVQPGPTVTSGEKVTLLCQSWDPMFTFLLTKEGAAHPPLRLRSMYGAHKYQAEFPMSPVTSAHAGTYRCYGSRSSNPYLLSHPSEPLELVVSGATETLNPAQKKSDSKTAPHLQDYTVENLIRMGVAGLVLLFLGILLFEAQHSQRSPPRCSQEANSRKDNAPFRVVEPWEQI

Molecule: WT BST2 expressed on HEK293T cells (from UniProt Q10589 1-161) (natural protein)
- percentage of NFAT-GFP positive ILT7+ reporter cells after co-culture with BST2-expressing HEK293T cells (no HIV) [1]: 99%
- percentage of NFAT-GFP positive ILT7+ reporter cells after co-culture with BST2-expressing HEK293T cells producing WT HIV (Vpu present) [1]: 74%
- percentage of NFAT-GFP positive ILT7+ reporter cells after co-culture with BST2-expressing HEK293T cells producing dU HIV (no Vpu) [1]: 48%

B1: recombinant GST-tagged ectodomain of BST2 (residues 47 to 159) (domain or fragment)
chain: KANSEACRDGLRAVMECRNVTHLLQQELTEAQKGFQDVEAQAATCNHTVMALMASLDAEKAQGQKKVEELEGEITTLNHKLQDASAEVERLRRENQVLSVRIADKKYYPSSQD
notes: BST2/Tetherin (CD317), human, extracellular domain, residues 47 to 159; a region common to the short and the long BST2 isoforms; Cloned into the pBADM30 expression vector as a His-tagged GST-N-terminus fusion protein; also called GST-BST2; BST2/Tetherin; not shown: GST, N-terminal, kept
- Kd [2]: 2330 nM
- koff [2]: 0.00308 s⁻¹
- kon [2]: 1250 M⁻¹ s⁻¹
